Reference: patent US12018066 (TRIAD NATIONAL SECURITY, dated 2024)
Like-named read-outs stand apart in the source and are kept apart here.

How the values were obtained:
[1] = target: T1, SARS-CoV-2 spike protein receptor binding domain (RBD2) (SARS-CoV-2, UniProt P0DTC2 319-537)
[2] = target: T1, SARS-CoV-2 spike protein receptor …; assay: flow cytometry, yeast-displayed scFv
[3] = target: T2, SARS-CoV spike protein receptor binding domain (RBD1) (SARS-CoV, UniProt P59594 306-527); assay: flow cytometry (yeast scFv) / minibody ELISA, FIGS. 7A-C
[4] = target: T1, SARS-CoV-2 spike protein receptor …; assay: flow cytometry, yeast-displayed scFv, titration of biotinylated antigen
[5] = target: T1, SARS-CoV-2 spike protein receptor …; assay: SPR
[6] = target: T1, SARS-CoV-2 spike protein receptor …; assay: SPR, minibodies
[7] = target: T1, SARS-CoV-2 spike protein receptor …; assay: SPR, immobilized antibody, RBD injected, 1:1 fit
[8] = target: T2, SARS-CoV spike protein receptor binding …; assay: ELISA, minibodies (FIG. 6)
[9] = target: T1, SARS-CoV-2 spike protein receptor …; remark: listed apart in the source
[10] = target: SARS-CoV-2 spike protein on whole SARS-CoV-2 virus (SARS-CoV-2, UniProt P0DTC2 14-1273); assay: cell-based or functional assay
[11] = target: T1, SARS-CoV-2 spike protein receptor …; assay: SPR sandwich binning, ligand Anti-His
[12] = target: T1, SARS-CoV-2 spike protein receptor …; assay: SPR sandwich binning, ligand B04
[13] = target: T1, SARS-CoV-2 spike protein receptor …; assay: SPR sandwich binning, ligand E01
[14] = target: T1, SARS-CoV-2 spike protein receptor …; assay: SPR sandwich binning, ligand E08
[15] = target: T1, SARS-CoV-2 spike protein receptor …; assay: SPR sandwich binning, ligand F07
[16] = target: T1, SARS-CoV-2 spike protein receptor …; assay: SPR sandwich binning, ligand G07
[17] = target: T1, SARS-CoV-2 spike protein receptor …; assay: SPR sandwich binning, ligand H01
[18] = target: T1, SARS-CoV-2 spike protein receptor …; assay: SPR sandwich binning, ligand H05
[19] = target: T1, SARS-CoV-2 spike protein receptor …; assay: SPR sandwich binning, ligand S01
[20] = target: T1, SARS-CoV-2 spike protein receptor …; assay: SPR sandwich binning, ligand CR3022

B1: E08 scFv (scFv)
scFv: SYVLTQPPSVSVAPGKTARITCGGNNIGWKSVHWYQQKPGQAPVLVVYDDSDRPSGIPERFSGSNSGNTATLTISRVEAGDEADYYCQVWDSSSDLVVFGGGTKLTVLSGGSTITSYNVYYTKLSSSGTQVQLVQSGAEVKKPGSSVKVSCKASGGTFSSYAISWVRQAPGQGLEWMGGIIPIFGTANYAQKFQGRVTITADESTSTAYMELSSLRSEDTAVYYCARASGRWLQFWHYYGMDVWGQGTTVTVSS
Q: How did the Kd [1] turn out when B1 was run?
A: 13.9 nM

Q: What about the Kd [2] of the same binder?
A: 13.9 nM

Q: Does B1 bind [3]?
A: binds

Q: And the Kd [4]?
A: 13.9 nM

B2: E08 minibody (scFv-Fc) (Fc fusion)
chain: SYVLTQPPSVSVAPGKTARITCGGNNIGWKSVHWYQQKPGQAPVLVVYDDSDRPSGIPERFSGSNSGNTATLTISRVEAGDEADYYCQVWDSSSDLVVFGGGTKLTVLSGGSTITSYNVYYTKLSSSGTQVQLVQSGAEVKKPGSSVKVSCKASGGTFSSYAISWVRQAPGQGLEWMGGIIPIFGTANYAQKFQGRVTITADESTSTAYMELSSLRSEDTAVYYCARASGRWLQFWHYYGMDVWGQGTTVTVSS
Q: Which results are given for B2?
A: Kd [5]: 3.6 nM; Kd [6]: 4 nM; Kd [7]: 3.6 nM

B3: F07 minibody (scFv-Fc) (Fc fusion)
chain: SYVLTQPPSVSVAPGQTARITCGGNNIGSKSVHWYQQKPGQAPVLVVYDDSDRPSGIPERFSGSNSGNTATLIISRVEAGDEADYYCQVWDSSSVHYVFGTGTKLTVLSGGSTITSYNVYYTKLSSSGTQVQLVQSGAEVKKPGSSVRVSCKVSGYTFTGYYMHWVRQAPGQGLEWMGIINPSGGSTSYAQKFQGRVTMTRDTSTSTVYMELSSLRSEDTAVYYCARVRVGASDAFDIWGQGTMVTVSS
Q: How did the Kd [5] turn out when B3 was run?
A: 61.5 nM

Q: Does B3 bind [8]?
A: no binding

Q: And the Kd [7]?
A: 61.5 nM

B4: E08 IgG1 (antibody, V domains shown)
VH: QVQLVQSGAEVKKPGSSVKVSCKASGGTFSSYAISWVRQAPGQGLEWMGGIIPIFGTANYAQKFQGRVTITADESTSTAYMELSSLRSEDTAVYYCARASGRWLQFWHYYGMDVWGQGTTVTVSS
VL: SYVLTQPPSVSVAPGKTARITCGGNNIGWKSVHWYQQKPGQAPVLVVYDDSDRPSGIPERFSGSNSGNTATLTISRVEAGDEADYYCQVWDSSSDLVVFGGGTKLTVL
Q: Which Kd [5] does the source give for B4 here?
A: 27 nM

Q: What about the Kd [9] of the same binder?
A: 26 nM

Q: What about the “NT50 (nM), half neutralization titer” value [10] of the same binder?
A: 52.9 nM

Q: And the “Nmax (%), neutralization maximum” value [10]?
A: 70.4%

Q: And the “normalized analyte binding to RBD2 held by the immobilized ligand” value (shortened to “normalized analyte binding to RBD2 held”) [11]?
A: 1.81

Q: What about the “normalized analyte binding to RBD2 held” value [12] of the same binder?
A: 2.12

Q: What about the “normalized analyte binding to RBD2 held” value [13] of the same binder?
A: 2.15

Q: And the “normalized analyte binding to RBD2 held” value [14]?
A: -0.09

Q: And the “normalized analyte binding to RBD2 held” value [15]?
A: 1.32

Q: And the “normalized analyte binding to RBD2 held” value [16]?
A: 2.62

Q: What about the “normalized analyte binding to RBD2 held” value [17] of the same binder?
A: 0.13

Q: And the “normalized analyte binding to RBD2 held” value [18]?
A: -0.11

Q: What about the “normalized analyte binding to RBD2 held” value [19] of the same binder?
A: 1.85

Q: And the Kd [7]?
A: 27 nM

Q: And the “normalized analyte binding to RBD2 held” value [20]?
A: -0.08

B5: H01 IgG1 (antibody, V domains shown)
VH: QVTLKESGPVLVKPTETLTLTCTVSGFSLSNARMGVSWIRQPPGKALEWLAHIFSNGEKSYSTSLKSRLTISKDTSKSQVVLTMTNMDPVDTATYYCARTLDYYDSSGYLVGGAFDIWGQGTMVTVSS
VL: QPGLTQPPSVSLAPGQTARITCGGNNIGSKSVHWYQQKPGQAPVLVVYDDSDRPSGIPERFSGSNAGNTATLTISRVEAGDEADYYCQVWDSRSDQYVFGTRTKLTVL
notes: also called H1
Q: Which Kd [5] does the source give for B5 here?
A: 800 nM

Q: What about the Kd [9] of the same binder?
A: 721 nM

Q: What about the “NT50 (nM), half neutralization titer” value [10] of the same binder?
A: 69.6 nM

Q: And the “Nmax (%), neutralization maximum” value [10]?
A: 87.7%

Q: And the “normalized analyte binding to RBD2 held” value [11]?
A: 1.75

Q: And the “normalized analyte binding to RBD2 held” value [12]?
A: 0.77

Q: And the “normalized analyte binding to RBD2 held” value [13]?
A: 0.41

Q: What about the “normalized analyte binding to RBD2 held” value [14] of the same binder?
A: -0.03

Q: What about the “normalized analyte binding to RBD2 held” value [15] of the same binder?
A: 0.03

Q: And the “normalized analyte binding to RBD2 held” value [16]?
A: 1.28

Q: What about the “normalized analyte binding to RBD2 held” value [17] of the same binder?
A: -0.03

Q: What about the “normalized analyte binding to RBD2 held” value [18] of the same binder?
A: -0.05

Q: And the “normalized analyte binding to RBD2 held” value [19]?
A: -0.11

Q: What about the Kd [7] of the same binder?
A: 800 nM

Q: What about the “normalized analyte binding to RBD2 held” value [20] of the same binder?
A: -0.05

B6: E01 minibody (scFv-Fc) (Fc fusion)
chain: SYELTQPPSVSVAPGETARITCGGDNIGRRHVHWYQQKPGQAPVLVIYDDSDRPSGIPDRFSGSNSGNTATLTIGRVEAGDEADYYCQVWGSSNDPHVFGTGTKLTVLSGGSTITSNNVYYTKLSSSGTQVQLQQWGAGLLKPSETLSLKCAVYGGSFSGYYWGWIRQSTGKGLEWIGEINRSGSTNYNPSLKSRVTISVDTSKNQFSLKLSSVTAADTAVYYCARGGARYYYGSGSYRSTPRPYYFDYWGQGTLVTVSS
notes: also called E1
Q: B6 was tested. Which Kd [5] did it give?
A: 21.5 nM

Q: Does B6 bind [8]?
A: no binding

Q: What about the Kd [7] of the same binder?
A: 21.5 nM

B7: R26 minibody (scFv-Fc) (Fc fusion)
chain: SYELTQPPSVSVAPGQTATITCGGKNIESKSVHWYQQKPGQAPVLVVSDDTDRASGIPERFSGSNSGGAATLTISRVEAGDEADYYCQVWDSPSDHYVFGPGTKLTVLSGGSTITSYNVYYTKLSSSGTQVQLVESGGGVVQPGRSLRLSCAASGFTFSSYAMHWVRQAPGKGLEWVAVISYDGSNKYYADSVKGRFTISRDKAKNTLYLQMNSLRGEDTAVYYCARELSYYDSSGYLRGDWYFDLWGRGTLVTVSS
Q: B7 was tested. Which Kd [6] did it give?
A: 900 nM

Q: What about the Kd [7] of the same binder?
A: 888 nM
